Paper PMC10602139, “Architecture and rearrangements of a sperm-specific Na^+/H^+ exchanger” (Research Square, 2023)

Target: the molecule itself
Experiment: cryo-EM structure; single-particle cryo-EM of purified protein in digitonin micelles; pH 8 or pH 6, NaCl or KCl; WT also with 5 mM cAMP at pH 6; C2 symmetry imposed

B1: sp9C1 R399A mutant, tag cleaved (cryo-EM sample) (natural protein, Strongylocentrotus purpuratus, UniProt A3RL54 30-1325, looked up)
chain: SSGGSGHTPTTQATHADDHDLTTHNGTEEHDDGHDDGHDDLHAHAPKVIVFISGSCLFGAISRSLFKKLPIPYTVVLLILGAILGVVASNVPLVEEHTRDVAHMDPHVLLQIFLPVLIFESAFAMDVHTFMRSFSQVCILALFGLVVASVLTAVLAMNLFNYNWNFSEAMMFGAIMSATDPVAVVALLKDLGASKQLGTIIEGESLLNDGCAIVIFNVFMKMVFFPQLTSTVGQNVLYFLQVAVAGPLWGYAVAKVTVFFLSHIFNDALVEITITLAATYLTYYIGDIWLEVSGVLAVVVLGLIVNAEKTSISPEVEVFLHRFWEMLAYLANTLIFMMVGVVVTQKALVAVDKMDWFYLIILYLAITIIAGMVISLFSPILSRIGYGLTWRNAVIMTWGGLRGAVGLALALVVENLAGNDVIGSKFLFHTAGIVVLTLVINATTIQTLLRILGMSDISIPKRLAMAGAVRRIHEGQNRTLNMLKSDRFLADADWDIATAACEISDPYSALSDDENAPADELTLGERKSVCPGCKAMVPNEPSPREFADMMEEARLRMLKAEKISYWKQFEHGMLAREALRLLVQHAEVAADEKDQFILVDDLKKSWQIKGIYPWLKRKLEDLISEKKIAAIPMPKYKLGKLMYKICHHMAFEVTINIAIVLNIVPIIMEFVVQDKMASVSTMAAPGSTVSSEPSSLQKIEDALRISNYVFFVIYAIEAIVKILGLGRHYIVSHWNKFDAFILVVALVDIIIAETLLKGSITINLSSIKVVKLFRLLRGLRMLRLTKALIPKLILVVNGKINNQLSLGYDVGKGYIIGEEEVGKIIDRMVDNKKILRELKHISETGRLQVVKELGLLQREHPGIAVSVKTRQAIRTILNHSRETIHELQGAGLLDEMEAHKLELTVEIKMKRLMNAPSSIPPPPPENLLKNVSWLAGDMKLIDFIKARASLLHFDYGEVIVREGDESDGLFLIVSGLVKLYGKSAFLDHDNPPVTAGSEENEVFEDYLTVGNVIGEMGVLTKKPRNATVTCETTVQVYFITAEDMNIAIDTFTLYPSLEYRLWRVVAIRIATPLIMEQMAFQGWTQEKVKLHLERGYLVDLAESHFQFNIDATLEDVILINGTAYNAHTREEIRSPCLISRTVHKLTFQYTATEEPRLFVVRNAEYNGPILDGRLDVDSKRSLISITEISSNMCLKHAAELRQKNSKVMLSRKSSGAAAKEEEDCIPNTSDVEQAAGVSPSVPTKTTPKPKSFLPSLGLSMSKERVNGEAVEESPVKTKQGEETPETEEGAAPRVNV
notes: SLC9C1, Strongylocentrotus purpuratus, full length with R399A; made in the background of the parent construct; source: HEK293F, transiently transfected; purified in digitonin (anti-GFP-nanobody resin, PreScission cleavage, gel filtration); not shown: mEGFP, C-terminal, cleaved; Twinstrep, C-terminal, cleaved
Does B1 bind?
Result: binds
